These results are taken from article PMC10143966, “The Replicative DnaE Polymerase of Bacillus subtilis Recruits the Glycolytic Pyruvate Kinase (PykA) When Bound to Primed DNA Templates” (Life, 2023).

A word on the Kd: it is the free concentration of one partner at which half of the binding sites on the other are occupied at equilibrium, for simple one-to-one binding.

Read-outs that look alike come from different tables or passages of the source.

The target in data set [1] is T1, B. subtilis DnaE polymerase (B. subtilis, UniProt O34623 1-1115).
T1 construct: DnaE DNA polymerase, Bacillus subtilis; also called replicative DnaE polymerase; lagging strand DNA polymerase
T1 sequence (looked up): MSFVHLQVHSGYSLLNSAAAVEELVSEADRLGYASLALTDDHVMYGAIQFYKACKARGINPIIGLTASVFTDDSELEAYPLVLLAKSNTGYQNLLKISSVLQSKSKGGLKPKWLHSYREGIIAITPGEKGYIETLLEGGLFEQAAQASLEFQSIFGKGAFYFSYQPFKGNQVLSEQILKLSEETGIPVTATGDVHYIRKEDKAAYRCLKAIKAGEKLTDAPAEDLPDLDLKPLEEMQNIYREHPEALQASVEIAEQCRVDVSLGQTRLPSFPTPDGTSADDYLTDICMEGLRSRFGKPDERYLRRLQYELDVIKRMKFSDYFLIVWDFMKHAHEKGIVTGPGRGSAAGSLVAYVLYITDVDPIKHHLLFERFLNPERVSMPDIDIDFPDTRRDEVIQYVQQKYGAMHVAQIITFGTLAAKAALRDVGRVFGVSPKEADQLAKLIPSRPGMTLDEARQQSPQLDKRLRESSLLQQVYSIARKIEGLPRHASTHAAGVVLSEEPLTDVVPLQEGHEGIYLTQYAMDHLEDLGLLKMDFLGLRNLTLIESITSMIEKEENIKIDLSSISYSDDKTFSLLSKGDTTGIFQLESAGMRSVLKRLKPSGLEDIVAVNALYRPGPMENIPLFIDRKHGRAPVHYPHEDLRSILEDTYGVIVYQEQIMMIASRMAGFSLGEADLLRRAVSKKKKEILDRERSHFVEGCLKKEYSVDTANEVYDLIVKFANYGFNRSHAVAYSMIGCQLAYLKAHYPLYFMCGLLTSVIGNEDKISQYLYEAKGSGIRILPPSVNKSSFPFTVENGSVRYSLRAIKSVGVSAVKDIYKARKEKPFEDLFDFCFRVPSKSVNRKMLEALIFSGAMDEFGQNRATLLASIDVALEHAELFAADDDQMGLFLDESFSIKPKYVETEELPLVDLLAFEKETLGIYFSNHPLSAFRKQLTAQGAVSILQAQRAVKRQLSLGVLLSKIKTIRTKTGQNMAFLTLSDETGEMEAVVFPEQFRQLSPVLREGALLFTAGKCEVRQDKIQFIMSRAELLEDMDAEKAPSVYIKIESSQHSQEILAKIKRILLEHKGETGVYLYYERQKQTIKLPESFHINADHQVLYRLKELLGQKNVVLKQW
Briefly: SPR; 5'-biotinylated primed DNA probe (30 mer annealed to 110 mer) immobilised on a streptavidin SA chip (about 100 RU); DnaE (35 nM) added with increasing concentrations of PykA (0-1000 nM), CAT or PEPut; Biacore T200, 200 uL/min, 25 °C, 25 mM NaCl, 25 mM MgCl2, 150 mM Tris-HCl pH 7.5, 1 mM DTT; maximum RU values fitted to a one site-specific binding curve.

The next data set addresses DnaE polymerase (Bacillus subtilis, UniProt O34623 1-1115). Briefly: SPR; 25 mM MgCl2; DnaE 0-700 nM; SPR (Biacore T200, SA chip): 25 mM NaCl, 25 mM MgCl2, 150 mM Tris-HCl pH 7.5, 1 mM DTT, 25 °C. To be noted: protein: recombinant; label: 5' biotin on 110 mer (strand 1); 30 mer primer annealed to 110 mer template, ssDNA on both sides; 5' A of the primer may be near/at the CCCCCT junction. (In general: In SPR one partner is held on a chip, and binding of the other changes the refractive index at the surface.)

Data set [2] deals with DnaE polymerase;PykA CAT domain (Bacillus subtilis;Bacillus subtilis, UniProt O34623;P80885 1-1115;2-473, |). The data set can be described thus: SPR; CAT titrated onto DnaE (35 nM) on DNA; Kd is for CAT to DnaE-DNA complex; 25 mM MgCl2; SPR (Biacore T200, SA chip): 25 mM NaCl, 25 mM MgCl2, 150 mM Tris-HCl pH 7.5, 1 mM DTT, 25 °C. To be noted: protein: recombinant;recombinant; tags: ;His-MBP removed by TEV; label: 5' biotin on 110 mer (strand 1); 30 mer primer annealed to 110 mer template, ssDNA on both sides; 5' A of the primer may be near/at the CCCCCT junction.

The target of another data set is T2, PykA PEPut domain (Bacillus subtilis, UniProt P80885 494-585).
T2 sequence: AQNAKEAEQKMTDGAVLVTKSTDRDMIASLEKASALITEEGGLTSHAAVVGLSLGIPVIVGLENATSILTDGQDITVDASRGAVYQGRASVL
The data set can be described thus: SPR; no DnaE; 25 mM MgCl2; SPR (Biacore T200, SA chip): 25 mM NaCl, 25 mM MgCl2, 150 mM Tris-HCl pH 7.5, 1 mM DTT, 25 °C. Particulars: protein: recombinant; tags: His-MBP removed by TEV; label: 5' biotin on 110 mer (strand 1); 30 mer primer annealed to 110 mer template, ssDNA on both sides; 5' A of the primer may be near/at the CCCCCT junction.

Another data set has as its target T3, PykA CAT domain (Bacillus subtilis, UniProt P80885 2-473).
T3 sequence: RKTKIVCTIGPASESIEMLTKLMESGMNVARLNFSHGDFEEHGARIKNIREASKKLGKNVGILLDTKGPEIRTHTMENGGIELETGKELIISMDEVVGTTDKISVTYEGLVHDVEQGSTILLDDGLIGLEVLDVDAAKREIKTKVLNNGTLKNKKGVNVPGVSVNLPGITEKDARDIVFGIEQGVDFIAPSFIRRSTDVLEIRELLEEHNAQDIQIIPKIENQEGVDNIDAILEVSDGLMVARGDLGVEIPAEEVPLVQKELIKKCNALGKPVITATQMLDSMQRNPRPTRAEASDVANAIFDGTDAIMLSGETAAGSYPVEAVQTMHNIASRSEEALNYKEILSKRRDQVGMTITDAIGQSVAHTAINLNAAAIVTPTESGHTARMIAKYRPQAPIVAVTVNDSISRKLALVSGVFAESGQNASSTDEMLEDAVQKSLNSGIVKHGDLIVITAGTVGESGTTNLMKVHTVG
Described as above. Particulars: protein: recombinant; tags: His-MBP removed by TEV; label: 5' biotin on 110 mer (strand 1); 30 mer primer annealed to 110 mer template, ssDNA on both sides; 5' A of the primer may be near/at the CCCCCT junction.

The next data set addresses T4, PykA pyruvate kinase (Bacillus subtilis, UniProt P80885 1-585).
T4 sequence: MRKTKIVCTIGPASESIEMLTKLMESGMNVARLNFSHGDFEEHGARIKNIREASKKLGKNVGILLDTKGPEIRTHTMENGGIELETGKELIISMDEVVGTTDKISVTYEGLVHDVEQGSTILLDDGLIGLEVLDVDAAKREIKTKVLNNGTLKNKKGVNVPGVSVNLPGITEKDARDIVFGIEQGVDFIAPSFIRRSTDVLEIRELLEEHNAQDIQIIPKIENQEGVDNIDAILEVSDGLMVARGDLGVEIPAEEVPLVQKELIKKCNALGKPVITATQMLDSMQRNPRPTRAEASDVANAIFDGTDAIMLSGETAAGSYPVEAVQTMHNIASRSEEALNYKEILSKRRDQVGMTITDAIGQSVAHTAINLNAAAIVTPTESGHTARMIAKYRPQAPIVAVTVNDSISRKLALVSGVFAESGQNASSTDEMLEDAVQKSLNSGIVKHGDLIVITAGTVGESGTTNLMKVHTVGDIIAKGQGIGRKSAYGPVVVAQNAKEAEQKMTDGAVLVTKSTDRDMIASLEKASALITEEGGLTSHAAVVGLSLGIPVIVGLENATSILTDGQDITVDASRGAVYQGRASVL
The description is as above. To be noted: protein: recombinant; tags: His-MBP removed by TEV; chain copies: 4; label: 5' biotin on 110 mer (strand 1); 30 mer primer annealed to 110 mer template, ssDNA on both sides; 5' A of the primer may be near/at the CCCCCT junction.

For data set [3], the target named is DnaE polymerase;PykA pyruvate kinase (Bacillus subtilis;Bacillus subtilis, UniProt O34623;P80885 1-1115;1-585, |). Briefly: SPR; PykA titrated (0-1000 nM) onto DnaE (35 nM) on DNA; Kd is for PykA to DnaE-DNA complex; 25 mM MgCl2; SPR (Biacore T200, SA chip): 25 mM NaCl, 25 mM MgCl2, 150 mM Tris-HCl pH 7.5, 1 mM DTT, 25 °C. To be noted: protein: recombinant;recombinant; tags: ;His-MBP removed by TEV; copies: 1;4; label: 5' biotin on 110 mer (strand 1); 30 mer primer annealed to 110 mer template, ssDNA on both sides; 5' A of the primer may be near/at the CCCCCT junction.

With “CAT domain of B. subtilis PykA (domain or fragment)”, the Kd in data set [1] was 7.33 nM.

B1: primed probe, 30 mer on 5'-biotinylated 110 mer (mixed)
DNA 1: CACACACACACACACACACACACACACACACACACACACACACACACACACACACACACCCCCTTTAAAAAAAAAAAAAAAAGCCAAAAGCAGTGCCAAGCTTGCATGCC
DNA 2: AGGGGGTGTGTGTGTGTGTGTGTGTGTGTG
As to B1, the values for the Kd (in the data set with DnaE polymerase; in data set [2]; in data set [3]) were 146 nM, 7.33 nM and 14.6 nM, respectively. Moreover, the binding result with PykA PEPut domain, with PykA CAT domain and in the data set with PykA pyruvate kinase was “no binding” throughout.

B2: B. subtilis pyruvate kinase PykA, full-length, wild type (enzyme, UniProt P80885 1-585, looked up)
chain: MRKTKIVCTIGPASESIEMLTKLMESGMNVARLNFSHGDFEEHGARIKNIREASKKLGKNVGILLDTKGPEIRTHTMENGGIELETGKELIISMDEVVGTTDKISVTYEGLVHDVEQGSTILLDDGLIGLEVLDVDAAKREIKTKVLNNGTLKNKKGVNVPGVSVNLPGITEKDARDIVFGIEQGVDFIAPSFIRRSTDVLEIRELLEEHNAQDIQIIPKIENQEGVDNIDAILEVSDGLMVARGDLGVEIPAEEVPLVQKELIKKCNALGKPVITATQMLDSMQRNPRPTRAEASDVANAIFDGTDAIMLSGETAAGSYPVEAVQTMHNIASRSEEALNYKEILSKRRDQVGMTITDAIGQSVAHTAINLNAAAIVTPTESGHTARMIAKYRPQAPIVAVTVNDSISRKLALVSGVFAESGQNASSTDEMLEDAVQKSLNSGIVKHGDLIVITAGTVGESGTTNLMKVHTVGDIIAKGQGIGRKSAYGPVVVAQNAKEAEQKMTDGAVLVTKSTDRDMIASLEKASALITEEGGLTSHAAVVGLSLGIPVIVGLENATSILTDGQDITVDASRGAVYQGRASVL
notes: PykA pyruvate kinase, Bacillus subtilis; 1755 bp pykA fragment amplified from genomic DNA, cloned into p2CT; the same vector gives an N-terminal tag for PEPut; Tetramer: legends give 16 nM monomers as 4 nM tetramers; also called full-length PykA; wild-type PykA; source: E. coli Rosetta (DE3), purified (HisTrap IMAC, TEV cleavage, reverse IMAC, Superdex 200 gel filtration)
The molecule B2 registered a Kd in data set [1] (both partners purified) of 14.6 nM.
